According to patent US20200071382A1 (published 2020):

Target: T1, BMP9 (UniProt Q9UK05 320-429)
T1 construct: Ligand injected over the captured receptor protein
T1 sequence (looked up): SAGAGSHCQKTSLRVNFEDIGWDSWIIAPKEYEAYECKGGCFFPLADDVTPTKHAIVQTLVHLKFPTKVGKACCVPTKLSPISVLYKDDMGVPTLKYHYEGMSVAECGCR
Assay: Biacore SPR; protein captured by anti-Fc antibody, ligand injected
Method: These protein complexes were independently captured in the system using an anti-Fc antibody. Ligands were injected and allowed to flow over the captured receptor protein. Results are summarized in the table below, in which ligand off-rates (kd) most indicative of effective ligand traps are denoted by bold text.

B1: ENG(26-346)-Fc:Fc monomeric complex (Fc fusion)
chain: ETVHCDLQPVGPERDEVTYTTSQVSKGCVAQAPNAILEVHVLFLEFPTGPSQLELTLQASKQNGTWPREVLLVLSVNSSVFLHLQALGIPLHLAYNSSLVTFQEPPGVNTTELPSFPKTQILEWAAERGPITSAAELNDPQSILLRLGQAQGSLSFCMLEASQDMGRTLEWRPRTPALVRGCHLEGVAGHKEAHILRVLPGHSAGPRTVTVKVELSCAPGDLDAVLILQGPPYVSWLIDANHNMQIWTTGEYSFKIFPEKNIRGFKLPDTPQGLLGEARMLNASIVASFVELPLASIVSLHASSCGGRLQTSPAPIQTTPPTGGGTHTCPPCPAPELLGGPSVFLFPPKPKDTLMISRTPEVTCVVVDVSHEDPEVKFNWYVDGVEVHNAKTKPREEQYNSTYRVVSVLTVLHQDWLNGKEYKCKVSNKALPAPIEKTISKAKGQPREPQVYTLPPSRKEMTKNQVSLTCLVKGFYPSDIAVEWESNGQPENNYKTTPPVLKSDGSFFLYSKLTVDKSRWQQGNVFSCSVMHEALHNHYTQKSLSLSPGK
For B1, which Kd is on record?
Its Kd is greater than 36 nM.
